Article PMC9723610
Where two headings read alike, the source gives them in different places.

Key:
hG3BP1 [1] = target: T1, hG3BP1 (human, UniProt Q13283 1-466); experiment: EMSA
hG3BP1 [2] = target: T1, hG3BP1; experiment: EMSA; remark: listed apart in the source

T1 sequence (Q13283 whole entry): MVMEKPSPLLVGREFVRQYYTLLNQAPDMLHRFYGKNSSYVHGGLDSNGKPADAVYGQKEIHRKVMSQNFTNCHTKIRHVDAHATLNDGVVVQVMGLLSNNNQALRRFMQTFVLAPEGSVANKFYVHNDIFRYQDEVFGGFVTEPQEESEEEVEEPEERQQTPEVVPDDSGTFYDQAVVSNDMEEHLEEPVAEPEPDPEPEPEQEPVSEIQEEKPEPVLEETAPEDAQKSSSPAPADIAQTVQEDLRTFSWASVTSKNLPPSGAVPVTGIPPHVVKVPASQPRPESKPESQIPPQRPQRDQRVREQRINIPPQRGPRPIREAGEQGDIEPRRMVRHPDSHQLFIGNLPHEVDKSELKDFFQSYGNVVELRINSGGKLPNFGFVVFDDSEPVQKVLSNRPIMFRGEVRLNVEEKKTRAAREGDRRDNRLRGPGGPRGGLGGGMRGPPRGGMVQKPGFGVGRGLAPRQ

| Binder | binding result (hG3BP1 [1]) | binding result (hG3BP1 [2]) |
| --- | --- | --- |
| AGGGGGCCGUGGGGUGGGAGCUGGGG (structured_RNA) [BCL2 rG4 (rBCL2)] | binds | – |
| GUGUGGGAGGGGCGGGUCUGGGUGCG (structured_RNA) [NRAS rG4 (rNRAS)] | binds | – |
| AGGAGGAGGAGGAGG (structured_RNA) [r(AGG)5 rG4] | – | binds |
| GGGUUAGGGUUAGGGUUAGGG (structured_RNA) [rOG0 rG4] | binds | – |
